Results published in paper PMC8383165.

Target: GHSR with a TAG amber codon at F71^1.60 and a single reactive cysteine at position 255^6.27, doubly labelled (UniProt Q92847)
UniProt Q92847, sequence (Q92847 1-70): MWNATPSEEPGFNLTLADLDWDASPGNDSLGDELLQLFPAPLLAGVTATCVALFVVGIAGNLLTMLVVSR

proximity ratio change from the intramolecular FRET between fluorophores in TM1 and TM6 of GHSR, in lipid nanodiscs with D2R, 10 µM peptide | proximity ratio change from the intramolecular FRET between fluorophores in TM1 and TM6 of GHSR, in lipid nanodiscs with D2R | Substance
11.9 |  | LEAP2 (1–12) (peptide)
 | 13.3 | LEAP2 (1–14) (peptide)
